“Also recorded” adds a separate entry of the source.
Columns and labels:
[1] = target: NMC-P1 peptide (SEQ ID NO:1), amino acids 1-15 of HDM2 (Homo sapiens, UniProt Q00987); assay: Peptide-ELISA; format: binding; conditions: for binding to NMC-P1 peptide: peptide-ELISA, 5 μg/ml peptide on plate, OD 450 nm
Procedure: (§1) Peptide-ELISA Methodology: 5 μg/ml of NMC-P1, NMC-P2 or NMC-P3 peptide antigen was dried onto a 96-well ELISA plate overnight. Plates were then blocked with 5% BSA in 1× phosphate-buffered saline (PBS) (100 μl/well) for 2 hours at room temperature. Microplate wells were then washed 5 times with 300 μl of ice cold 1×PBS. Appropriate dilutions of monoclonal antibodies NMC-103, NMC-204 or NMC-303 in 1% bovine serum albumin (BSA) in PBS solution were then incubated with their corresponding peptides (NMC-P1, NMC-P2 or NMC-P3, respectively) at room temperature. After 2 hours, wells were washed 5 times with 300 μl ice-cold PBS/well and 100 μl secondary antibody (HRP-labeled Goat anti-Mouse F(ab′)2 H&L cross-adsorbed secondary antibody (HRP-GaM F(ab′)2), ThermoFisher, Cat. No. A24524) diluted 1:2500 to 1:5000 in PBS-1% BSA solution were added and the incubation continued at room temperature. After 1 hour, the wells were washed again 5 times with 200 μl of ice-cold PBS and 50 μL of the TMB Substrate Solution (1-Step™ Ultra TMB-ELISA, ThermoFisher, Cat. No. 34028) were added to each well and color was allowed to develop for 30 minutes at room temperature. The reaction was stopped by addition of 50 μL of stop solution (ThermoFisher, Cat. No. SS04) to each well and absorbance of each well was read immediately for optical density (OD) at 450 nm.
Competition assays: As for peptide antigen binding competition experiments, […] of mAb NMC-103 was pre-incubated with 10 μl/ml of NMC-P1, NMC-P2 or NMC-P3 for 1 hour at room temperature. MAb NMC-103 was then incubated with ELISA plates coated with NMC-P1 as described above.

[2] = test system: human pancreatic cancer MIAPaCa-2 cells; assay: In vitro growth inhibition (cell count); format: cell-based; conditions: overnight, MIAPaCa-2 8,000 cells/well
Procedure: Methodology used: Human pancreatic cancer MIAPaCa-2 cells (8,000 cells/well) were pre-incubated with mAb NMC-103, NMC-204 and anti-Cytochrome-C antibody (Santa Cruz, Cat No. sc-13156) at 1, 5 and 10 μg/mL, respectively. Cells in the presence of one of the antibodies at various concentrations were then plated in triplicate in 96-well cell culture plates overnight. The next day, each plate well was analyzed morphologically and a picture was taken from each well using EVOS FL microscope. Cell count was also performed and the number of living cells was graphed as % of control.

[3] = target: NMC-P2 peptide (SEQ ID NO:2), amino acids 15-25 of HDM2 (Homo sapiens, UniProt Q00987); assay: Peptide-ELISA; format: binding; conditions: 5 μg/ml peptide on plate, OD 450 nm
Procedure: as §1

[4] = test system: mouse colon cancer MC-38 cells; assay: MC-38 syngeneic mouse model of colon cancer; format: in vivo; conditions: for reduction in tumor volume over the same time period: 0.4 mg/kg i.p. 3 times a week for 3 weeks
Procedure: Methodology used (Syngeneic Mouse Models of lung, colon and pancreatic cancer): To investigate the anti-tumor effects of HDM2-specific antibodies on lung, colon and pancreatic tumors in vivo, three well-known syngeneic mouse models of lung, colon and pancreatic cancer were used (Sharma et al., 1999, J. Immunol. 163 (9):5020-5028; McIntyre, 2015, Bioassays 37(8):909-920; Li, et al., 2015, Sci. Rep. 5:7856). Subcutaneous tumors were prepared by implanting either mouse Lewis Lung cancer LL/2 cells (2.5×10^5 cells/mouse), mouse colon cancer MC-38 cells (5×10^5 cells/mouse) or mouse pancreatic cancer Panc-2 cells (2×10^6 cells/mouse) in the right flanks of 8-week-old female C57BL/6 mice (n=6-7). The mice were returned to their respective cages after tumor implantation. From day 7 after tumor implantation, the tumor volumes were measured 2 times/week with a digital caliper. In the case of MC-38 and Panc-2 study, treatment started when the tumors reached an average of 70-80 mm^3. In the case of LL/2 study, tumor cell inoculation and treatment were initiated simultaneously. Mice were micro-chipped and registered following tumor implantation. Tumor volume measurements and body weights were recorded and mice were randomized into groups that received: A) mAb NMC-103 at 0.4 mg/kg (3 times a week for 3 weeks), 2 mg/kg (2 times a week for 3 weeks), or 4 mg/kg (2 times a week for 3 weeks); B) NMC-204 at 0.4 mg/kg (3 times a week for 3 weeks); C) isotype control mouse IgG1 (Abcam, Cat. No. ab18447) or IgG3 (Abcam, Cat. No. ab18392) at 0.4 mg/kg (3 times a week for 3 weeks) or 4 mg/kg (2 times a week for 3 weeks); D) Gemcitabine (25 mg/kg) and nab-paclitaxel (5 mg/kg) 2 times a week for 3 weeks; or E) a combination of gemcitabine (25 mg/kg), nab-paclitaxel (5 mg/kg) and mAb NMC-103 (2 mg/kg; 2 times a week for 3 weeks) or ([…]; […]). All tumors were injected subcutaneously and all treatments were performed by intraperitoneal injection. Any mouse displaying prolonged adverse clinical signs, or with body weight loss exceeding 15% relative to body weight at day 0, was euthanized. Tumor measurements from post-treatment with HDM2-specific antibodies versus isotype control mouse antibodies versus standard of care treatment (gemcitabine and nab-paclitaxel) were made, and results are presented in FIGS. 16-19.

[5] = competition: 1 μl/ml mAb pre-incubated with 10 μl/ml peptide for 1 hour

Molecule	binding of mAb to plate-bound NMC-P1 after pre-incubation with NMC-P1 peptide [1, 5]	binding of mAb to plate-bound NMC-P1 after pre-incubation with NMC-P2 peptide [1, 5]	binding of mAb to plate-bound NMC-P1 after pre-incubation with NMC-P3 peptide [1, 5]	binding to NMC-P1 peptide [1]	growth inhibitory effect ([2]; 1 μg/mL antibody)	growth inhibitory effect ([2]; 5 μg/mL antibody)	growth inhibitory effect ([2]; 10 μg/mL antibody)	binding to NMC-P2 peptide [3]	average tumor size ([4]; MC-38, n=5, 10 mg/kg 2 times per week, by day 12)	reduction in tumor volume over the same time period ([4]; MC-38)	tumor reduction at 10 mg/kg compared to 0.4 mg/kg ([4]; MC-38, 10 mg/kg two times per week for three weeks vs FIG. 17)	tumor volume ([4]; MC-38 s.c. in C57BL/6, 0.4 mg/kg i.p. 3 times a week for 2.5 weeks, treated for 18 days (NMC-103 study))	tumor cells stained positive for Ki67 ([4]; MC-38 tumors, immunohistochemical staining, NMC-103 study, 0.4 mg/kg)	tumor volume ([4]; MC-38, 0.4 mg/kg i.p. 3 times a week for 3 weeks (NMC-204 study))	tumor cells stained positively for Ki67 ([4]; MC-38 tumors, NMC-204 study, 0.4 mg/kg)
NMC-103: mouse monoclonal antibody of the IgG1 isotype that binds to NMC-P1 (SEQ ID NO:1); VH SEQ ID NO:36, VL SEQ ID NO:37 (antibody, V domains shown, mAb NMC-103 Heavy Chain Variable Region; mAb NMC-103 Light Chain Variable Region) VH: EVQLQESGGGLVQPGGSLRLSCTTSGFTFTHYYMSWVRQPPGKALEWLGFIRNKAKGYTAEYSASVKGRFTISRDNSQSILYLQMNTLRPEDSATYYCARDIGDNWGQGTLVTVSS VL: DIVMTQAAFSNPVTLGTSASISCRSSKNLLHSNGITYLYWYLQRPGQSPQLLISRVSNLASGVPNRFSGSESGTDFTLRISRVEAEDVGVYFCAQLLELPYTFGGGTKLEIK	abolished the binding	did not affect the binding	did not affect the binding	bound; also recorded: strong binding	65%	84%	91%	did not bind	210 mm^3	significant (p<0.005) reduction in tumor volume	greater tumor reduction	1268 mm^3	5%	–	–
NMC-204: mouse monoclonal antibody of the IgG3 isotype that binds to NMC-P2 (SEQ ID NO:2); VH SEQ ID NO:38, VL SEQ ID NO:39 (antibody, V domains shown, mAb NMC-204 Heavy Chain Variable Region; mAb NMC-204 Light Chain Variable Region) VH: EVQLQESGSVLVRPGASVKLSCKASGDTLSGSWMHWAMQRPGQGLEWIGEIHLNRGTTNYNEKFKGKATVTVDTSSSTAYVDLSSLTSEDSAVYYCARSPGFAYWGQGTLVTVSA VL: GIVMTQAAPSVPVTPGESVSISCRSSKSLLHSNGNSYLYWFLQRPGQSPQLLIYRMSNLASGVPDRFSGSGSGTAFTLRITRVEAEDVGVYYCMQHLEYPFTFGSGTKLEIK	–	–	–	did not bind	65%	73%	77%	bound; also recorded: strong binding	–	significant (p<0.005) reduction in tumor volume	–	–	–	1670 mm^3	30%

— patent US20220098328A1, “ANTIBODIES TO M(H)DM2/4 AND THEIR USE IN DIAGNOSING AND TREATING CANCER” (NomoCan Pharmaceuticals LLC, priority 2017, published 2022)
